# Source: patent publication US20260242735A1
# Legend:
# human CD33 T320A (human) = human CD33 T320A (human) (UniProt P20138); assay: flow cytometry, HEK293-T, alanine scan
# human CD33 L277A (human) = human CD33 L277A (human) (UniProt P20138); assay: flow cytometry, HEK293-T, alanine scan
# human CD33 G327A (human) = human CD33 G327A (human) (UniProt P20138); assay: flow cytometry, HEK293-T, alanine scan
# human CD33 E337A (human) = human CD33 E337A (human) (UniProt P20138); assay: flow cytometry, HEK293-T, alanine scan
# human CD33 D298A (human) = human CD33 D298A (human) (UniProt P20138); assay: flow cytometry, HEK293-T, alanine scan
# Sequence of human CD33 D298A (human) (P20138 18-364 D298A limits assumed): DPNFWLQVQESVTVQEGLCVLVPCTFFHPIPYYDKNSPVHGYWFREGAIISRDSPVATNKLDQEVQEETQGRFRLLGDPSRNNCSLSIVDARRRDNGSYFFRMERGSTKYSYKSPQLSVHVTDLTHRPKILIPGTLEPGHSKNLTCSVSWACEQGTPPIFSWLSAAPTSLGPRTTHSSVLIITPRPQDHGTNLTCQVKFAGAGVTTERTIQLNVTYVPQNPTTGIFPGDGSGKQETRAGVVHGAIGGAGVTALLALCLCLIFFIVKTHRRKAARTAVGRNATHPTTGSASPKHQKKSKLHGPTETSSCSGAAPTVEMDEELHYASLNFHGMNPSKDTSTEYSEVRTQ
# human CD33 C325A (human) = human CD33 C325A (human) (UniProt P20138); assay: flow cytometry, HEK293-T, alanine scan
# human CD33 I278A (human) = human CD33 I278A (human) (UniProt P20138); assay: flow cytometry, HEK293-T, alanine scan
# human CD33 K283A (human) = human CD33 K283A (human) (UniProt P20138); assay: flow cytometry, HEK293-T, alanine scan
# human CD33 S342A (human) = human CD33 S342A (human) (UniProt P20138); assay: flow cytometry, HEK293-T, alanine scan
# human CD33 H310A (human) = human CD33 H310A (human) (UniProt P20138); assay: flow cytometry, HEK293-T, alanine scan
# human CD33 P319A (human) = human CD33 P319A (human) (UniProt P20138); assay: flow cytometry, HEK293-T, alanine scan
# Sequence of human CD33 P319A (human) (P20138 18-364 P319A limits assumed): as the sequence (P20138 18-364 D298A limits assumed) above, with A281D, P302A counted along it
# human CD33 K315A (human) = human CD33 K315A (human) (UniProt P20138); assay: flow cytometry, HEK293-T, alanine scan
# Sequence of human CD33 K315A (human) (P20138 18-364 K315A limits assumed): as the sequence (P20138 18-364 D298A limits assumed) above, with A281D, K298A counted along it
# human CD33 L316A (human) = human CD33 L316A (human) (UniProt P20138); assay: flow cytometry, HEK293-T, alanine scan
# Sequence of human CD33 L316A (human) (P20138 18-364 L316A limits assumed): as the sequence (P20138 18-364 D298A limits assumed) above, with A281D, L299A counted along it
# human CD33 H285A (human) = human CD33 H285A (human) (UniProt P20138); assay: flow cytometry, HEK293-T, alanine scan
# human CD33 I281A (human) = human CD33 I281A (human) (UniProt P20138); assay: flow cytometry, HEK293-T, alanine scan
# human CD33 E321A (human) = human CD33 E321A (human) (UniProt P20138); assay: flow cytometry, HEK293-T, alanine scan
# human CD33 T292A (human) = human CD33 T292A (human) (UniProt P20138); assay: flow cytometry, HEK293-T, alanine scan
# human CD33 T303A (human) = human CD33 T303A (human) (UniProt P20138); assay: flow cytometry, HEK293-T, alanine scan
# human CD33 G318A (human) = human CD33 G318A (human) (UniProt P20138); assay: flow cytometry, HEK293-T, alanine scan
# Sequence of human CD33 G318A (human) (P20138 18-364 G318A limits assumed): as the sequence (P20138 18-364 D298A limits assumed) above, with A281D, G301A counted along it
# human CD33 L343A (human) = human CD33 L343A (human) (UniProt P20138); assay: flow cytometry, HEK293-T, alanine scan
# human CD33 C276A (human) = human CD33 C276A (human) (UniProt P20138); assay: flow cytometry, HEK293-T, alanine scan
# Sequence of human CD33 C276A (human) (P20138 18-364 C276A limits assumed): as the sequence (P20138 18-364 D298A limits assumed) above, with C259A, A281D counted along it
# human CD33 K309A (human) = human CD33 K309A (human) (UniProt P20138); assay: flow cytometry, HEK293-T, alanine scan
# human CD33 D335A (human) = human CD33 D335A (human) (UniProt P20138); assay: flow cytometry, HEK293-T, alanine scan
# Sequence of human CD33 D335A (human) (P20138 18-364 D335A limits assumed): as the sequence (P20138 18-364 D298A limits assumed) above, with A281D, D318A counted along it
# human CD33 A329S (human) = human CD33 A329S (human) (UniProt P20138); assay: flow cytometry, HEK293-T, alanine scan
# human CD33 N344A (human) = human CD33 N344A (human) (UniProt P20138); assay: flow cytometry, HEK293-T, alanine scan
# human CD33 C274A (human) = human CD33 C274A (human) (UniProt P20138); assay: flow cytometry, HEK293-T, alanine scan
# human CD33 T302A (human) = human CD33 T302A (human) (UniProt P20138); assay: flow cytometry, HEK293-T, alanine scan
# human CD33 G304A (human) = human CD33 G304A (human) (UniProt P20138); assay: flow cytometry, HEK293-T, alanine scan
# Sequence of human CD33 G304A (human) (P20138 18-364 G304A limits assumed): as the sequence (P20138 18-364 D298A limits assumed) above, with A281D, G287A counted along it
# human CD33 S305A (human) = human CD33 S305A (human) (UniProt P20138); assay: flow cytometry, HEK293-T, alanine scan
# Sequence of human CD33 S305A (human) (P20138 18-364 S305A limits assumed): as the sequence (P20138 18-364 D298A limits assumed) above, with A281D, S288A counted along it
# human CD33 P48G (human) = human CD33 P48G (human) (UniProt P20138); assay: flow cytometry on transfected cells, IgG
# human CD33 P48D (human) = human CD33 P48D (human) (UniProt P20138); assay: flow cytometry on transfected cells, IgG
# Sequence of human CD33 P48D (human) (P20138 18-364 P48D limits assumed): as the sequence (P20138 18-364 D298A limits assumed) above, with P31D, A281D counted along it
# human CD33 Y50V (human) = human CD33 Y50V (human) (UniProt P20138); assay: flow cytometry on transfected cells, IgG
# human CD33 Y49I (human) = human CD33 Y49I (human) (UniProt P20138); assay: flow cytometry on transfected cells, IgG
# human CD33 Y49T (human) = human CD33 Y49T (human) (UniProt P20138); assay: flow cytometry on transfected cells, IgG
# human CD33 T42K (human) = human CD33 T42K (human) (UniProt P20138); assay: flow cytometry on transfected cells, IgG
# Sequence of human CD33 T42K (human) (P20138 18-364 T42K limits assumed): as the sequence (P20138 18-364 D298A limits assumed) above, with T25K, A281D counted along it
# human CD33 F44P (human) = human CD33 F44P (human) (UniProt P20138); assay: flow cytometry on transfected cells, IgG
# human CD33 Y49Q (human) = human CD33 Y49Q (human) (UniProt P20138); assay: flow cytometry on transfected cells, IgG
# human CD33 Y49G (human) = human CD33 Y49G (human) (UniProt P20138); assay: flow cytometry on transfected cells, IgG
# human CD33 F44H (human) = human CD33 F44H (human) (UniProt P20138); assay: flow cytometry on transfected cells, IgG
# human CD33 F44S (human) = human CD33 F44S (human) (UniProt P20138); assay: flow cytometry on transfected cells, IgG
# human CD33 F44T (human) = human CD33 F44T (human) (UniProt P20138); assay: flow cytometry on transfected cells, IgG
# human CD33 Y50G (human) = human CD33 Y50G (human) (UniProt P20138); assay: flow cytometry on transfected cells, IgG
# human CD33 P48M (human) = human CD33 P48M (human) (UniProt P20138); assay: flow cytometry on transfected cells, IgG
# human CD33 F44Q (human) = human CD33 F44Q (human) (UniProt P20138); assay: flow cytometry on transfected cells, IgG
# human CD33 Y49S (human) = human CD33 Y49S (human) (UniProt P20138); assay: flow cytometry on transfected cells, IgG
# human CD33 Y49D (human) = human CD33 Y49D (human) (UniProt P20138); assay: flow cytometry on transfected cells, IgG
# Sequence of human CD33 Y49D (human) (P20138 18-364 Y49D limits assumed): as the sequence (P20138 18-364 D298A limits assumed) above, with Y32D, A281D counted along it
# Sequence of human CD33 G327A (human) (P20138 18-364 G327A limits assumed): as the sequence (P20138 18-364 D298A limits assumed) above, with A281D, G310A counted along it
# Sequence of human CD33 L277A (human) (P20138 18-364 L277A limits assumed): as the sequence (P20138 18-364 D298A limits assumed) above, with L260A, A281D counted along it
substance,measurement,setting,value
Refmab #7 (WM53) (antibody),Mean % WT Binding,human CD33 T320A (human),117 % WT binding
same,Mean % WT Binding,human CD33 L277A (human),92 % WT binding
same,Mean % WT Binding,human CD33 G327A (human),110 % WT binding
same,Mean % WT Binding,human CD33 E337A (human),102 % WT binding
same,Mean % WT Binding,human CD33 D298A (human),86.5 % WT binding
same,Mean % WT Binding,human CD33 C325A (human),101 % WT binding
same,Mean % WT Binding,human CD33 I278A (human),93.2 % WT binding
same,Mean % WT Binding,human CD33 K283A (human),117 % WT binding
same,Mean % WT Binding,human CD33 S342A (human),95.2 % WT binding
same,Mean % WT Binding,human CD33 H310A (human),90.4 % WT binding
same,Mean % WT Binding,human CD33 P319A (human),114 % WT binding
same,Mean % WT Binding,human CD33 K315A (human),112 % WT binding
same,Mean % WT Binding,human CD33 L316A (human),103 % WT binding
same,Mean % WT Binding,human CD33 H285A (human),109 % WT binding
same,Mean % WT Binding,human CD33 I281A (human),110 % WT binding
same,Mean % WT Binding,human CD33 E321A (human),109 % WT binding
same,Mean % WT Binding,human CD33 T292A (human),119 % WT binding
same,Mean % WT Binding,human CD33 T303A (human),77.1 % WT binding
same,Mean % WT Binding,human CD33 G318A (human),128 % WT binding
same,Mean % WT Binding,human CD33 L343A (human),96.2 % WT binding
same,Mean % WT Binding,human CD33 C276A (human),110 % WT binding
same,Mean % WT Binding,human CD33 K309A (human),93.6 % WT binding
same,Mean % WT Binding,human CD33 D335A (human),106 % WT binding
same,Mean % WT Binding,human CD33 A329S (human),120 % WT binding
same,Mean % WT Binding,human CD33 N344A (human),108 % WT binding
same,Mean % WT Binding,human CD33 C274A (human),102 % WT binding
same,Mean % WT Binding,human CD33 T302A (human),113 % WT binding
same,Mean % WT Binding,human CD33 G304A (human),103 % WT binding
same,Mean % WT Binding,human CD33 S305A (human),106 % WT binding
same,Mean % WT Binding,human CD33 P48G (human),13.3 % WT binding
same,Mean % WT Binding,human CD33 P48D (human),0.1 % WT binding
same,Mean % WT Binding,human CD33 Y50V (human),3.9 % WT binding
same,Mean % WT Binding,human CD33 Y49I (human),0.2 % WT binding
same,Mean % WT Binding,human CD33 Y49T (human),0.1 % WT binding
same,Mean % WT Binding,human CD33 T42K (human),77 % WT binding
same,Mean % WT Binding,human CD33 F44P (human),21.8 % WT binding
same,Mean % WT Binding,human CD33 Y49Q (human),0.7 % WT binding
same,Mean % WT Binding,human CD33 Y49G (human),20.5 % WT binding
same,Mean % WT Binding,human CD33 F44H (human),82.4 % WT binding
same,Mean % WT Binding,human CD33 F44S (human),31.8 % WT binding
same,Mean % WT Binding,human CD33 F44T (human),31.7 % WT binding
same,Mean % WT Binding,human CD33 Y50G (human),17.2 % WT binding
same,Mean % WT Binding,human CD33 P48M (human),3.2 % WT binding
same,Mean % WT Binding,human CD33 F44Q (human),74.8 % WT binding
same,Mean % WT Binding,human CD33 Y49S (human),3.6 % WT binding
same,Mean % WT Binding,human CD33 Y49D (human),3.9 % WT binding
